This assay deals with TGFβ1 (UniProt P01137). Put plainly: cell-based or functional assay.

The record followed here is patent publication US20160075755A1.

TGFβ1, sequence (P01137 279-390 limits assumed): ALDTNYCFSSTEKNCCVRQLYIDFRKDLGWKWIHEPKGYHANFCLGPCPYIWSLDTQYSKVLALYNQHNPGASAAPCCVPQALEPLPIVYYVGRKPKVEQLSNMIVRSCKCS
DNRII (truncated, dominant-negative TGFβ receptor II), sequence (P37173 23-199): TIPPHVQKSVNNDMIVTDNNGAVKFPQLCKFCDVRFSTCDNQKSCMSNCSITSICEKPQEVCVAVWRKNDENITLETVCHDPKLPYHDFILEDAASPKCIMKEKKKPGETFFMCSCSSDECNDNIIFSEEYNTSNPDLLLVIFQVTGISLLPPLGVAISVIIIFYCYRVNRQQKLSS

For “DNRII (truncated, dominant-negative TGFβ receptor II) (from UniProt P37173 23-199)”, the T cell expansion after 30 days in culture in the presence of TGFβ1 came to 0.72 fold; the Total Flux of firefly-luciferase-Du145 cells (express PSCA, produce TGFβ1) after 6 days of co-culture stood at 1e+10 p/s; the fold expansion of 2G.CAR-PSCA(DNRII) T cells at 2 weeks of culture in the presence of TGFβ1 is 7.4 fold.
In the case of “RIID4 (chimeric cytokine receptor: exodomain of TGFβRII linked to the endodomain of toll-like receptor (TLR) 4) (from UniProt P37173 23-166; O00206 632-839)”, the T cell expansion for >60 days in the presence of TGFβ1 was found to be 300000 fold; the Total Flux of firefly-luciferase-Du145 cells (express PSCA, produce TGFβ1) after 6 days of co-culture is 9e+09 p/s; the fold expansion of 2G.CAR-PSCA(RIID4) T cells at 2 weeks of culture in the presence of TGFβ1 worked out at 21 fold; the transgenic T cell proliferation with TGFβ1 alone (no antigen) came out at 0.04 fold.
